Assays:
chymase (recombinant) [1] = target: T1, chymase (recombinant) (UniProt P23946 P23946:22-247); assay: inhibition; SPR ++; details: tags: SIGMA, expressed in yeast
T1 sequence: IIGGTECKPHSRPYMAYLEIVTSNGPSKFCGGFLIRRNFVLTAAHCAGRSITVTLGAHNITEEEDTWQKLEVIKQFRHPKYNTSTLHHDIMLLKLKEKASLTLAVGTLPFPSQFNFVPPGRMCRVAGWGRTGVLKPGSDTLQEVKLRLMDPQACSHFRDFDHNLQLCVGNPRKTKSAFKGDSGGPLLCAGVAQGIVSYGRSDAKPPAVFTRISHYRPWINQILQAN
Method: (§1) Here, Suc is a protecting succinyl group, and MCA is a 4-methylcoumaryl-7-amide group; upon cleavage of the C-terminal side of phenylalanine, AMC (7-amino-4-methyl-coumarine) is released. By detecting the fluorescence of this AMC, the enzyme activity of chymase can be determined. The assay was performed using a 96-well plate (F16 Black Maxisorp Fluoronunc, manufactured by Nunc), with a reaction mixture volume of 100 μL, in solution C as a buffer solution. First, each nucleic acid was serially diluted to 0.0027-2 μM concentrations in solution C to obtain 50 μL solutions. After 10 μL of the 1 mM substrate prepared in solution C was added thereto, the plate was set to the microplate reader SpectraMax190 (manufactured by Molecular Devices Corporation), and incubated at 37° C. for 5 minutes. Separately, 0.05 μg (or 0.005 μg) of chymase (recombinant, manufactured by SIGMA) was diluted in solution C to obtain a 40 μL chymase solution, and incubated at 37° C. for 5 minutes. The chymase solution was added to the mixture of the nucleic acid and substrate to initiate an enzyme reaction. The final chymase concentration in the reaction mixture was 16.7 nM (or 1.67 nM), the final substrate concentration being 100 μM. The plate containing the reaction mixture was set to the microplate reader SpectraMax190 (manufactured by Molecular Devices Corporation), and examined for time-dependent changes in the fluorescence intensity at 37° C. for 5 minutes (or 30 minutes) (excitation wavelength 380 nm, detection wavelength 460 nm). A linear approximation of the increase in the fluorescence of the AMC released from the substrate by chymase activity was generated, and its slope was taken as the initial velocity […]. For control, samples were treated and analyzed in the same manner in two cases: use of a 30N or 40N (a nucleotide of 30 or 40 consecutive bases represented by N; N is A, G, C or T) nucleic acid pool (negative control), and use of chymostatin, a known chymotrypsin-like serine protease inhibitor (positive control). Taking the initial reaction velocity without the nucleic acid and inhibitor (V_0) as a 100% enzyme activity, the inhibitory rate of each test substance was calculated using the following equation: […]

[2] = target: T2, chymase (native, human skin mast cell) (Homo sapiens, UniProt P23946 P23946:22-247); assay: inhibition; angiotensin I substrate; recombinant 0.041 uM; details: tags: Calbiochem
T2 sequence: T1 sequence
Method: (§2) The total volume of solution for an enzyme reaction in the assay was set to 50 μL, and the reaction was performed in solution C buffer. First, 0.3-0.75 ng of chymase (recombinant, (manufactured by SIGMA) or native (manufactured by Calbiochem)) was diluted with solution C to give 5 μL thereof. Here, the recombinant is chymase expressed by yeast, and the native is chymase purified from human skin mast cell. The nucleic acid was serially diluted with solution C at a concentration of 0.0027-2 μM to give 25 μL thereof. The chymase solution (5 μL) and the nucleic acid solution (25 μL) were mixed, and the mixture was incubated at 37° C. for 5 min. […] The whole mixture was centrifuged at 4° C., 14000 rpm for 10 min, and the supernatant (30 μL) was used for the next fluorescence induction reaction.
(§3) The above-mentioned supernatant (30 μL) was added to a 96 well plate (black, manufactured by Costar), a solution (15 μL) of 2% o-phthalaldehyde (manufactured by SIGMA) in methanol and 0.3M NaOH solution (170 μL) were added to each well, and the mixture was incubated at room temperature for 10 min. […] The plate was set on a microplate reader SpectraMax190 (manufactured by Molecular device) and the fluorescence intensity was measured at an excitation wavelength of 355 nm and a fluorescence wavelength of 460 nm.

chymase [3] = target: T3, chymase (Homo sapiens, UniProt P23946 P23946:22-247); assay: inhibition; angiotensin I; recombinant 0.274; details: tags: human skin mast cell, Calbiochem
T3 sequence: T1 sequence
Method: as §2, §3

chymase [4] = target: T3, chymase; assay: SPR; stronger than 40N; solution A; details: tags: human skin mast cell, Calbiochem
Method: (§4) The binding activities against chymase of the nucleic acids shown by SEQ ID NO: 4-20 and 22-34 were determined by the surface plasmon resonance method using Biacore T100 (manufactured by GE Healthcare). The sensor chip used was the SA chip, which had streptavidin immobilized thereon. Bound thereto was about 1500 RU of a 16-nucleotide Poly dT with biotin bound to the 5' end thereof. […] 20 μL of chymase for analyte, prepared at 0.2 μM, was injected. Solution A was used as a running buffer.

chymase [5] = target: T3, chymase; assay: inhibition; Suc-AAPF-MCA, 37 C, solution C; details: tags: recombinant, expressed in yeast, SIGMA
Method: as §1
(§5) The chymase inhibitory activity was measured in the same manner as in Example 3.

chymase [6] = target: T3, chymase; assay: inhibition; angiotensin I; recombinant 0.361; details: tags: human skin mast cell, Calbiochem
Method: as §2, §3

chymase [7] = target: T3, chymase; assay: inhibition; angiotensin I; recombinant 0.055; details: tags: human skin mast cell, Calbiochem
Method: as §2, §3

chymase [8] = target: T3, chymase; assay: inhibition; angiotensin I; recombinant 0.022; details: tags: human skin mast cell, Calbiochem
Method: as §2, §3

chymase (recombinant) [9] = target: T1, chymase (recombinant); assay: SPR; stronger than 30N; solution C; chymase preparation for SPR not specified; details: tags: SIGMA, expressed in yeast
Method: as §4
The binding activities against chymase of the nucleic acids shown by SEQ ID NO: 38-48 were evaluated by the surface plasmon resonance method. In the evaluations for SEQ ID NO: 38-48, measurements were taken in the same manner as Example 1. Solution C was used as a running buffer.

chymase (recombinant) [10] = target: T1, chymase (recombinant); assay: inhibition; SPR not determined; details: tags: SIGMA, expressed in yeast
Method: as §1, with “The chymase solution was added to the mixture of the nucleic acid and substrate to initiate an enzyme reaction. The final chymase concentration in the reaction mixture was 16.7 nM (or 1.67 nM), the final substrate concentration being 100 μM.” left out
as §5

chymase [11] = target: T3, chymase; assay: inhibition; angiotensin I; recombinant 0.108; details: tags: human skin mast cell, Calbiochem
Method: as §2, §3

chymase [12] = target: T3, chymase; assay: inhibition; angiotensin I; recombinant 0.446; details: tags: human skin mast cell, Calbiochem
Method: as §2, §3

chymase [13] = target: T3, chymase; assay: inhibition; angiotensin I; recombinant 0.397; details: tags: human skin mast cell, Calbiochem
Method: as §2, §3

chymase (recombinant) [14] = target: T1, chymase (recombinant); assay: inhibition; SPR not determined; details: tags: SIGMA, expressed in yeast; remark: listed apart in the source
Method: (§6) Here, Suc is a protecting succinyl group, and MCA is a 4-methylcoumaryl-7-amide group; upon cleavage of the C-terminal side of phenylalanine, AMC (7-amino-4-methyl-coumarine) is released. By detecting the fluorescence of this AMC, the enzyme activity of chymase can be determined. The assay was performed using a 96-well plate (F16 Black Maxisorp Fluoronunc, manufactured by Nunc), with a reaction mixture volume of 100 μL, in solution C as a buffer solution. First, each nucleic acid was serially diluted to 0.0027-2 μM concentrations in solution C to obtain 50 μL solutions. After 10 μL of the 1 mM substrate prepared in solution C was added thereto, the plate was set to the microplate reader SpectraMax190 (manufactured by Molecular Devices Corporation), and incubated at 37° C. for 5 minutes. […] The plate containing the reaction mixture was set to the microplate reader SpectraMax190 (manufactured by Molecular Devices Corporation), and examined for time-dependent changes in the fluorescence intensity at 37° C. for 5 minutes (or 30 minutes) (excitation wavelength 380 nm, detection wavelength 460 nm). A linear approximation of the increase in the fluorescence of the AMC released from the substrate by chymase activity was generated, and its slope was taken as the initial velocity ($Vmax$). […]
The inhibitory activity on chymase was measured in the same manner as in Example 3.

chymase (recombinant) [15] = target: T1, chymase (recombinant); assay: inhibition; SPR ++; details: tags: SIGMA, expressed in yeast; remark: listed apart in the source
Method: as §1, §5

[16] = target: T2, chymase (native, human skin mast cell); assay: inhibition; angiotensin I substrate; recombinant 0.037 uM; details: tags: Calbiochem
Method: as §2, §3

chymase (recombinant) [17] = target: T1, chymase (recombinant); assay: inhibition; Suc-AAPF-MCA, solution C, 37 C; SPR ++; details: tags: SIGMA, expressed in yeast
Method: as §6

[18] = target: T2, chymase (native, human skin mast cell); assay: inhibition; angiotensin I substrate, solution C, 37 C; recombinant 0.003 uM; details: tags: Calbiochem
Method: as §2, §3

chymase [19] = target: T3, chymase; assay: inhibition; angiotensin I; recombinant 0.354; details: tags: human skin mast cell, Calbiochem
Method: as §2, §3

chymase [20] = target: T3, chymase; assay: inhibition; angiotensin I; recombinant 0.456; details: tags: human skin mast cell, Calbiochem
Method: as §2, §3

chymase [21] = target: T3, chymase; assay: inhibition; angiotensin I; recombinant 0.207; details: tags: human skin mast cell, Calbiochem
Method: as §2, §3

[22] = target: T2, chymase (native, human skin mast cell); assay: inhibition; angiotensin I substrate; recombinant 0.235 uM; details: tags: Calbiochem, stem-loop (MFOLD)
Method: as §2, §3

chymase (recombinant) [23] = target: T1, chymase (recombinant); assay: inhibition; SPR ++; 0.027 uM in Table 6; details: tags: SIGMA, expressed in yeast; stem-loop (MFOLD)
Method: as §6
Chymase inhibitory activity was determined in the same manner as Example 3.

B1: SEQ 13 (ssRNA)
RNA: GGGACGGUAGGAAUUCCGCAACCAUCCCGUAACUAUGGUUAGAUAGAGUUAAAAACCAUAGAAGAGCGGCCGC
modifications: 2'-F pyrimidines
IC50 (chymase (recombinant) [1]): 58 nM | IC50 [2]: 74 nM

B2: SEQ 65 (ssRNA)
RNA: GGCAGAUAGAGUUAAAGCC
modifications: 2'-F U and C
IC50 (chymase [3]): 878 nM

B3: SEQ 10 (ssRNA)
RNA: GGGACGGUAGGAAUUCCGCCGCCUAAAAAACGACGAUAUUACAGAAACGUCAAAUACAUAGAAGAGCGGCCGC
modifications: 2'-F U and C
binding result (chymase [4]): binds

B4: 56(21) (ssRNA)
RNA: GGGUUAGAUAGAGUUAAAAACCC
modifications: 2'-F U and C; 2'-OMe 1-3,7,8,10,13,16-20
IC50 (chymase [5]): 45 nM | IC50 (chymase [6]): 722 nM

B5: 56(19) (ssRNA)
RNA: GGGUUAGAUAGAGUUAAAAACCC
modifications: 2'-F U and C; PS 6-7
IC50 (chymase [7]): 130 nM

B6: SEQ 14 (ssRNA)
RNA: GGGACGGUAGGAAUUCUCGUUCCUGACAGCAUUUGAGAUAGAUUUAAACAAACGCACAUAGAAGAGCGGCCGC
modifications: 2'-F U and C
IC50 (chymase [8]): 63 nM

B7: SEQ 39 (ssRNA)
RNA: GGGAGCAGGAGAGAGGUCAGAUGGUUACGGAUAGAGUUAAGGUAACGGUACGGCCUAUGCGUGCUAGUGUGA
modifications: 2'-F pyrimidines
binding result (chymase (recombinant) [9]): binds

B8: 72(8) (mixed)
mixed: GGGTTAGAUAGAGTUAAAAACCC
modifications: B-idT-G(M)G(M)G(M)ttAG(M)aU(F)A(M)GAG(M)tU(F)A(M)A(M)A(M)A(M)A(M)ccc-idT (lower case DNA, B=biotin)
IC50 (chymase (recombinant) [10]; label: biotin): 18 nM

B9: SEQ 69 (ssRNA)
RNA: AAAGGGUUAGAUAGAGUUAAAAACCC
modifications: PEG-A(M)A(M)A(M)G(M)G(M)G(M)U(F)U(F)AG(M)A(M)U(F)A(M)GAG(M)U(F)U(F)A(M)A(M)A(M)A(M)A(M)C(F)C(F)C(F)-idT (M=2'-OMe, F=2'-F)
IC50 (chymase (recombinant) [10]): 91 nM

B10: 56(18) (ssRNA)
RNA: GGGUUAGAUAGAGUUAAAAACCC
modifications: 2'-F U and C; PS 5-6
IC50 (chymase [11]): 174 nM

B11: SEQ 53 (ssRNA)
RNA: GGGUAACUAUGGUUAGAUAGAGUUAAAAACCAUAGAAGACCC
modifications: 2'-F U and C
IC50 (chymase [12]): 764 nM

B12: SEQ 54 (ssRNA)
RNA: UAACUAUGGUUAGAUAGAGUUAAAAACCAUAGAAGA
modifications: 2'-F U and C
IC50 (chymase [13]): 614 nM

B13: 56(17) (ssRNA)
RNA: GGGUUAGAUAGAGUUAAAAACCC
modifications: 2'-F pyrimidines; 5' 40 kDa branched PEG; 3' idT
IC50 (chymase (recombinant) [14]): 58 nM

B14: 72(2) (mixed)
mixed: GGGTTAGAUAGAGTUAAAAACCC
modifications: idT-G(M)G(M)G(M)ttAsG(M)aU(F)A(M)GAG(M)tU(F)A(M)A(M)A(M)A(M)A(M)ccc-idT (lower case DNA, s=PS)
IC50 (chymase (recombinant) [15]): 14 nM | IC50 [16]: 76 nM

B15: 56(27) (ssRNA)
RNA: GGGUUAGAUAGAGUUAAAAACCC
modifications: PEG-G(M)G(M)G(M)U(F)U(F)AG(M)A(M)U(F)A(M)GAG(M)U(F)U(F)A(M)A(M)A(M)A(M)A(M)C(F)C(F)C(F)-idT (M=2'-OMe, F=2'-F)
IC50 (chymase (recombinant) [10]): 84 nM

B16: SEQ 4 (ssRNA)
RNA: GGGACGGUAGGAAUUCGUCCAUUCUACAGAUAGAGAUAAAGUAGAAUUUAACAAAACAUAGAAGAGCGGCCGC
modifications: 2'-F pyrimidines
IC50 (chymase (recombinant) [17]): 49 nM | IC50 [18]: 31 nM

B17: SEQ 55 (ssRNA)
RNA: CUAUGGUUAGAUAGAGUUAAAAACCAUAG
modifications: 2'-F U and C
IC50 (chymase [19]): 606 nM

B18: 56(17) (ssRNA)
RNA: GGGUUAGAUAGAGUUAAAAACCC
modifications: 2'-F U and C; 5' PEG 40 kDa; 3' idT
IC50 (chymase [20]): 613 nM

B19: 56(1) (ssRNA)
RNA: GGGUUAGAUAGAGUUAAAAACCC
modifications: 2'-F U and C; 5' and 3' idT
IC50 (chymase [21]): 404 nM

B20: SEQ 56 (ssRNA)
RNA: GGGUUAGAUAGAGUUAAAAACCC
modifications: 2'-F pyrimidines
IC50 [22]: 508 nM | IC50 (chymase (recombinant) [23]): 46 nM

From patent US9012420B2, “Aptamer for chymase, and use thereof” (Ribomic Inc., priority 2009, dated 2015)
